Measurements as given in patent US20230192767A1 (MEDIKINE, published 2023).
Ends that are not written are not given here.

Key:
[1] = target: T1, human IL-2Rγc (CD132 protein, Fc Tag) (23-254) (human, UniProt P31785 23-254); assay: IC50, method not told in the paragraph
T1 construct: range 23-254; Bought protein; also called IL-2Rγc subunit; γc subunit; not shown: Fc Tag of the bought protein (ACRObiosystems ILG-H5256)
T1 sequence (looked up): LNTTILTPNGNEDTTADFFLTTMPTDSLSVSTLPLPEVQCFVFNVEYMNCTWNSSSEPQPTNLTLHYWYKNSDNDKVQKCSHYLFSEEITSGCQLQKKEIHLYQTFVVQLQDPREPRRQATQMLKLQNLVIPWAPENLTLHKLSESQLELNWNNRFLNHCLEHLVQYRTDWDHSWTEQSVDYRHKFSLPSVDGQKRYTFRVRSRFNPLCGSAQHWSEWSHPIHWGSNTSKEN

[2] = target: T2, human IL-2Rβ (CD122 protein, Fc Tag) (27-239) (human, UniProt P14784 27-239); assay: IC50, method not told in the paragraph
T2 construct: range 27-239; Bought protein; also called IL-2Rβ subunit; IL-2Rβ-Fc; not shown: Fc Tag of the bought protein (ACRObiosystems ILB-H5253)
T2 sequence (looked up): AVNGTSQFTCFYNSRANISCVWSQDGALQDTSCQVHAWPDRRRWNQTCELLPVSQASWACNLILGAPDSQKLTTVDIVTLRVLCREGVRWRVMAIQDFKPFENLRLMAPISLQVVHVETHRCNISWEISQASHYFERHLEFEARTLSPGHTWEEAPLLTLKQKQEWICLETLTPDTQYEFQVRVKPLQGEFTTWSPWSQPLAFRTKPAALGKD

B1: IL-2Rγc ligand SEQ ID NO: 266 (peptide)
peptide: CPSMLQGPERTWVC
- IC50 [1]: < 10 µM

B2: IL-2Rγc ligand SEQ ID NO: 236 (peptide)
peptide: MCWLEWGEWVGSCL
- IC50 [1]: < 10 µM

B3: IL-2Rγc ligand SEQ ID NO: 948 (peptide)
peptide: SLLKCYNASTCASVF
- IC50 [1]: < 10 µM

B4: IL-2Rγc ligand SEQ ID NO: 198 (peptide)
peptide: KVCEMWGGVLLCWN
- IC50 [1]: < 10 µM

B5: IL-2Rγc ligand SEQ ID NO: 1051 (peptide)
peptide: DLSDLSTFWLSQ
modifications: not fully specified
notes: Family 3; also called 248 or 1051
- IC50 [1]: < 10 µM

B6: IL-2Rγc ligand SEQ ID NO: 202 (peptide)
peptide: RTCTEWENVVLCWV
modifications: not fully specified; cysteine pairing not given here
- IC50 [1]: < 10 µM

B7: IL-2Rγc ligand SEQ ID NO: 224 (peptide)
peptide: DCSMWEGVELCW
notes: also called Peptide F
- IC50 [1]: < 10 µM

B8: IL-2Rβ ligand SEQ ID NO: 1044 (peptide)
peptide: RSCYYKRPRLWCSE
- IC50 [2]: < 10 µM
